Assay results taken from patent US20240199740A1 (Ablynx, published 2024).

Tests used:
[1] = biological target: T1, human CD123 expressed on cells (human, UniProt P26951 19-378); experiment: flow cytometry, KG1a cells
T1 construct: the cell line is named under assay; also called huCD123; IL-3Rα

[2] = biological target: T1, human CD123 expressed on cells; experiment: flow cytometry, MOLM-13 cells
[3] = biological target: T2, recombinant human CD123 protein (R&D Systems, 301-R3/CF) (human, UniProt P26951 19-305); experiment: SPR (ProteOn XPR36), CD123 immobilized
T2 construct: Bought recombinant His-tagged extracellular domain of human CD123; also called recombinant CD123; in house biotinylated-CD123 recombinant protein; not shown: His tag of the bought protein
T2 sequence: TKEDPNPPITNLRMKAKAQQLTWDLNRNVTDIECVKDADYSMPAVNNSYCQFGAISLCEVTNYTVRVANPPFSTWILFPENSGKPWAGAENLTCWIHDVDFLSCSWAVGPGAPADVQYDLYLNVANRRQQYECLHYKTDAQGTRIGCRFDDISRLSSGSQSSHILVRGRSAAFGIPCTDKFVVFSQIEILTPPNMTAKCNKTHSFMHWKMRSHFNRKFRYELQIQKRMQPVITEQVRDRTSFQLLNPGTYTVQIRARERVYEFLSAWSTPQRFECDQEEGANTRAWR

[4] = biological target: T1, human CD123 expressed on cells; experiment: flow cytometry, CHO Flp-In huCD123 transfected cells
[5] = biological target: T3, cynomolgus CD123 expressed on HEK Flp-In cells (cynomolgus); experiment: flow cytometry, HEK Flp-In cyCD123 transfected cells
T3 construct: EHH61867.1; also called cyCD123; cyno CD123
T3 chain: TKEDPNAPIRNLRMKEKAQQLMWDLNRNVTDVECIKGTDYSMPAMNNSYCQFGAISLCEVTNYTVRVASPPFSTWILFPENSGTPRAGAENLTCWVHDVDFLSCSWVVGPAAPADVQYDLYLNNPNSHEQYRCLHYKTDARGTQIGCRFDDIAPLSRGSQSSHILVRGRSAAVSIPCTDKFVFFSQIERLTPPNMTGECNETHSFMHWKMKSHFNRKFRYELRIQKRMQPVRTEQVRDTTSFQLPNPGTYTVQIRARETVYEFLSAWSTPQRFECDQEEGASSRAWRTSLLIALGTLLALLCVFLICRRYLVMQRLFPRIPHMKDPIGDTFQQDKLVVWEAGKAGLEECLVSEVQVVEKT

[6] = biological target: T1, human CD123 expressed on cells; experiment: flow cytometry competition, MOLM-13 cells, competitor APC-labelled antibody 7G3
[7] = biological target: T1, human CD123 expressed on cells; experiment: flow cytometry competition, MOLM-13 cells, competitor A0110056A10-Alexa647 (0.7 nM)
[8] = biological target: T1, human CD123 expressed on cells; experiment: flow cytometry, Alexa647-labelled Nanobody, MOLM-13 cells
[9] = biological target: T1, human CD123 expressed on cells; experiment: as above; remark: listed apart in the source
[10] = biological target: T1, human CD123 expressed on cells; experiment: flow cytometry, Alexa647-labelled Nanobody, CHO Flp-In huCD123 transfected cells
[11] = biological target: T3, cynomolgus CD123 expressed on HEK …; experiment: flow cytometry, Alexa647-labelled Nanobody, HEK Flp-In cyCD123 transfected cells
[12] = biological target: T1, human CD123 expressed on cells; experiment: flow cytometry, Alexa647-labelled Nanobody, CHO Flp-In human CD123 cells
[13] = biological target: T1, human CD123 expressed on cells; experiment: as above; remark: listed apart in the source
[14] = biological target: T1, human CD123 expressed on cells; experiment: flow cytometry competition, MOLM-13 cells, competitor A0110056A10-Alexa647 (0.4 nM)
[15] = biological target: T3, cynomolgus CD123 expressed on HEK …; experiment: flow cytometry, Alexa647-labelled Nanobody, HEK Flp-In cynomolgus CD123 cells
[16] = biological target: T2, recombinant human CD123 protein (R&D …); experiment: competition ELISA, coated antibody 7G3 as competitor, 4 nM biotinylated recombinant CD123
[17] = biological target: T1, human CD123 expressed on cells; experiment: flow cytometry competition, CHO Flp-In human CD123 cells, competitor APC-labelled antibody 7G3
[18] = biological target: T1, human CD123 expressed on cells; experiment: flow cytometry competition, CHO Flp-In huCD123 cells, competitor A0110056A10-Alexa647 (0.9 nM)
[19] = biological target: T3, cynomolgus CD123 expressed on HEK …; experiment: flow cytometry competition, HEK Flp-In cyCD123 cells, competitor A0110056A10-Alexa647 (0.9 nM)
[20] = biological target: T1, human CD123 expressed on cells; experiment: flow cytometry competition, CHO Flp-In human CD123 cells, competitor A0110056A10-Alexa647 (0.5 nM)

B1: A0110055F03 (VHH)
VHH: EVQLVESGGGLVQAGGPLRLSCAASGRTFSSYVMGWFRQAPGKEREFVAAIYWSNGKTQYTDSVKGRFTISGDNAKNTVYLQMNSLNPEDTAVYYCVADKDETGFRTLPIAYDYWGQGTQVTVSS
notes: Monovalent anti-CD123 Nanobody; also called A0110PMP055F03; A011005F03; not shown: C-terminal triple Flag, His6 tag
Work on B1 yielded an EC50 [1] of over 100 nM, an EC50 [2] of over 100 nM and a Kd [3] of 160 nM. The koff [3] was 0.0039 s⁻¹, the kon [3] was 25000 M⁻¹ s⁻¹ and the EC50 [4] was 5.94 nM. For the same binder, the EC50 [5] was 2.53 nM, the IC50 [6] was 480 nM and the IC50 [7] was over 100 nM.

B2: A0110056A10 (VHH)
VHH: EVQLVKSGGGLVQAGGSLRLSCAASGITSKINDMGWYRQTPGNYREWVASITATGTTNYRDSVKGRFTISRDNAKSTVYLQMNSLKPEDTTVYYCNTFPPISNFWGQGTLVTVSS
notes: Monovalent anti-CD123 Nanobody; also called A0110PMP056A10; A0110056A10-Alexa647; not shown: C-terminal triple Flag, His6 tag
B2 was tested, and the EC50 [1] was 0.5 nM, the EC50 [2] was 0.63 nM and the Kd [3] was 1.5 nM. For the same binder, the koff [3] was 0.00079 s⁻¹, the kon [3] was 530000 M⁻¹ s⁻¹ and the “EC50 (read off the curve)” value [8] was about 0.7 nM. The “EC50 (read off the curve)” value [9] was about 0.5 nM, the IC50 [6] was 1.1 nM and the EC50 [10] was 0.974 nM. For the same binder, the EC50 [11] was 2.48 nM, the “EC50 (read off the curve)” value [12] was about 3 nM and the “EC50 (read off the curve)” value [13] was about 1 nM. The IC50 [7] was 1.4 nM, the IC50 [14] was 1.1 nM and the “EC50 (read off the curve)” value [15] was about 3 nM. The IC50 [16] was 3.1 nM, the IC50 [17] was 6.5 nM and the IC50 [18] was 1.9 nM. The IC50 [19] was 7 nM and the IC50 [20] was 6.7 nM.
